Results published in patent US20250186541A1, “DLL3 TARGETING PEPTIDES AND CONSTRUCTS THEREOF” (MARIANA ONCOLOGY INC., priority 2023, published 2025).
Numbered stars: 1 amine (or outer) side, 2 acyl side, 3 side chain; on linkers, the order of the positions; unused ones are H or OH. Bridge positions count the residues as written; N and C are the ends. Square brackets hold non-standard residues; d marks the D form. Peptide text beside a SMILES is read from it. * marks the point of attachment. Ala(piperidin-4-yl) = O=C([C@H](CC1CCN([*:3])CC1)N[*:1])[*:2]; DOTA = O=C(O)CN1CCN(CC(=O)O)CCN(CC(=O)*)CCN(CC(=O)O)CC1; Trp(7-Me) = Cc1cccc2c(C[C@H](N)C(=O)O)c[nH]c12; Phe(4-CH2NH2) = NCc1ccc(C[C@H](N)C(=O)O)cc1; 1Nal = N[C@@H](Cc1cccc2ccccc12)C(=O)O; 2Nal = N[C@@H](Cc1ccc2ccccc2c1)C(=O)O; Phe(2-Me) = Cc1ccccc1C[C@H](N)C(=O)O; NMeChg = CN[C@H](C(=O)O)C1CCCCC1; tBuAla = CC(C)(C)C[C@H](N)C(=O)O; αMeD = C[C@](N)(CC(=O)O)C(=O)O; AllylGly = C=CC[C@H](N)C(=O)O; PAF(DOTA) = not defined here; αMeP = C[C@@]1(C(=O)O)CCCN1; NMeS = CN[C@@H](CO)C(=O)O; PAF = not defined here; Ahx = NCCCCCC(=O)O

T1: human DLL3 (Homo sapiens, UniProt Q9NYJ7)
T1 construct: biotin (biotinylated)
T1 sequence (Q9NYJ7 27-618): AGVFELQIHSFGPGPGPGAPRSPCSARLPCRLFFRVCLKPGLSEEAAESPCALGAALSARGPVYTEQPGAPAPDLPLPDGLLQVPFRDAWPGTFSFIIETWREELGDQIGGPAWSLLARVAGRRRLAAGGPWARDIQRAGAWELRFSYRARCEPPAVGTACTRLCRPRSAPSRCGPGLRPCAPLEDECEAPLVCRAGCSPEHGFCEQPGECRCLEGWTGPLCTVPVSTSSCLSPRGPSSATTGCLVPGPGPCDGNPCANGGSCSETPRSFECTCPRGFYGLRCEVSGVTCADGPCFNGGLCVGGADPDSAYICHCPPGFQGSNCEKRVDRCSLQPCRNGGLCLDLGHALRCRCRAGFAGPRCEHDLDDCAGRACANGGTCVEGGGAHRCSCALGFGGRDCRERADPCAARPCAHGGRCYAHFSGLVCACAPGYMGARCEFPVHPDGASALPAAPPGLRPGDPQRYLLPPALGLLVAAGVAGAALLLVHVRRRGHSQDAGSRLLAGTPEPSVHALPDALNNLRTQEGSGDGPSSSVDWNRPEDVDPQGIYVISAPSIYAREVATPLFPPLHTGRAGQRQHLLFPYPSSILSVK

T2: Biotinylated human DLL3 (human, UniProt Q9NYJ7 27-492, biotinylated (site not stated))
T2 construct: also called Delta-like ligand 3; Delta Like Canonical Notch Ligand 3
T2 sequence (looked up): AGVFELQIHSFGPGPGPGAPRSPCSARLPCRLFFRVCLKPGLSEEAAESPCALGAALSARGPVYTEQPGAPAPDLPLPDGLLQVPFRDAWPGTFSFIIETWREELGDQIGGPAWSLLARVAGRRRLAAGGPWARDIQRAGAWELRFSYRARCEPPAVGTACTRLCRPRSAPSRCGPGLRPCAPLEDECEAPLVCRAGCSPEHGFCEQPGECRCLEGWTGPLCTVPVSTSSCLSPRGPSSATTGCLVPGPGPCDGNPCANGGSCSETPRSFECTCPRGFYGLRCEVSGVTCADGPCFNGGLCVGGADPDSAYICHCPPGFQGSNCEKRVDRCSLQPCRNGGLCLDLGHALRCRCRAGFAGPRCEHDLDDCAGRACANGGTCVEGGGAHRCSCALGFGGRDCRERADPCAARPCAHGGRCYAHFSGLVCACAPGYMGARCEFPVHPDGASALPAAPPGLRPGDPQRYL

B1: [177Lu]Lu-Cpd #192 (peptide)
peptide: Ac-[Ala(piperidin-4-yl)][NMeS]NC[1Nal][tBuAla][PAF(DOTA)][2Nal]DC[αMeP]FD-NH2
modifications: disulfide 4-10; reading uncertain; also: 177Lu chelated, printed as Ac-[3-(4-piperidinyl)-Ala]-(NMe-Ser)-N-C(3)-(1Nal)-(t-Bu-Ala)-[PAF(DOTA)]-(2Nal)-D-C(3)-(aMe-P)-F-D-CONH2; (3)=disulfide; 177Lu chelated
B2: [177Lu]Lu-Cpd #158 (peptide)
peptide: Ac-[dA]SDC[1Nal][tBuAla][PAF(DOTA)][2Nal]NC[αMeP]FD-NH2
modifications: disulfide 4-10; reading uncertain; also: 177Lu chelated, printed as Ac-(D-Ala)-S-D-C(3)-(1Nal)-(t-Bu-Ala)-[PAF(DOTA)]-(2Nal)-N-C(3)-(aMe-P)-F-D-CONH2; (3)=disulfide; 177Lu chelated
B3: [177Lu]Lu-Cpd #191 (peptide)
peptide: Ac-[Ala(piperidin-4-yl)][NMeS]DC[1Nal][tBuAla][PAF(DOTA)][2Nal]NC[αMeP]FD-NH2
modifications: disulfide 4-10; reading uncertain; also: 177Lu chelated, printed as Ac-[3-(4-piperidinyl)-Ala]-(NMe-Ser)-D-C(3)-(1Nal)-(t-Bu-Ala)-[PAF(DOTA)]-(2Nal)-N-C(3)-(aMe-P)-F-D-CONH2; (3)=disulfide; 177Lu chelated
B4: Cpd #56 (peptide)
peptide: Ac-MSDC[1Nal]LQWNCPFD[dK](DOTA)-NH2
modifications: disulfide 4-10
SMILES: CSCC[C@H](NC(C)=O)C(=O)N[C@@H](CO)C(=O)N[C@@H](CC(=O)O)C(=O)N[C@H]1CSSC[C@@H](C(=O)N2CCC[C@H]2C(=O)N[C@@H](Cc2ccccc2)C(=O)N[C@@H](CC(=O)O)C(=O)N[C@H](CCCCNC(=O)CN2CCN(CC(=O)O)CCN(CC(=O)O)CCN(CC(=O)O)CC2)C(N)=O)NC(=O)[C@H](CC(N)=O)NC(=O)[C@H](Cc2c[nH]c3ccccc23)NC(=O)[C@H](CCC(N)=O)NC(=O)[C@H](CC(C)C)NC(=O)[C@H](Cc2cccc3ccccc23)NC1=O
B5: Cpd #188 (peptide)
peptide: Ac-[Ala(piperidin-4-yl)]SDC[1Nal][NMeChg][PAF](DOTA)[Trp(7-Me)]NC[αMeP]FD-NH2
modifications: disulfide 4-10; reading uncertain; also: printed as Ac-[3-(4-piperidinyl)-Ala]-S-D-C(3)-(1Nal)-(NMe-Chg)-[PAF(DOTA)]-(7Me-W)-N-C(3)-(aMe-P)-F-D-CONH2; (3)=disulfide

How the values were obtained:
SHP-77 cells [1] = assay: Internalization of [177Lu]Lu-labeled peptide after glycine acid wash, gamma counter internalized fraction; type: cell-based, human; conditions: [177Lu]Lu-test peptide, 1 h, 37° C., acid wash 50 mM Glycine pH 2.5
Protocol: (§1) Example 4. Cell Binding, Internalization, and Radiolabeling of Targeting Moieties Polypeptides General Procedure for Radiolabeling of RPTs with [^177Lu]LuCl3
(§2) [^177Lu]LuCl3 was received from venders in HCl solution. For every mCi of [^177Lu]LUCl3 added to the reaction vial (1.5 mL Eppendorf vial), ammonium acetate buffer (0.2 M, pH 4.9, 100 μL, containing 1% w/v ascorbic acid and 6% v/v ethanol) and peptide conjugate (1 nmol) was added. The pH of the solution was determined to be approximately 5 by using pH strips. The reaction vial was incubated at 80° C., 700 RPM for 17-20 minutes. A sample from the reaction was analyzed by RP-HPLC using an Agilent Infinity II 1260 HPLC to determine reaction completion and radiochemical purity. HPLC conditions: Waters XBridge BEH […] Column, 130 Å, 3.5 um, 4.6 mm×250 mm; mobile phase: Solvent A=water (with 0.1% formic acid), solvent B=acetonitrile (with 0.1% formic acid). Gradients: 25-45% B in 10 minutes, 45-65% B in 12 minutes, 65-90% in 6 minutes at a flow rate of 0.5 mL/min. Required amounts of the product was formulated in 1% PBSA for cell studies.
(§3) The study was conducted using SHP-77cells (Table 7) Adherent cell studies: The cells were cultured in appropriate culture media (20 mL) in tissue culture treated T150 flasks at 37° C. and 5% CO2. Adherent cells were detached (60-70% confluent) using 5 mL Versene at 37° C. for 3 min. After confirming the viability using countess and count of detached cells using Trypan blue, the cells were centrifuged at 4° C. for 5 minutes (1,000 rpm). The cell pellet obtained was washed once with PBS and resuspended in 1% PBSA to obtain the desired cell concentration (5-25 million cells/mL).
as §3, with “Suspension” for “The study was conducted using SHP-77cells (Table 7) Adherent”, “CO2.” for “CO2. Adherent cells were detached (60-70% confluent) using 5 mL Versene at 37° C. for 3 min.”, “viability” for “viability using countess”
(§4) Cell numbers used for the assay were in the range of 5 million cells/condition −25 million cells/condition.
Internalization: The resuspended cells in 300 μl of 1% PBSA and counted in the gamma counter as “bound fraction” were collected in 1.5 ml Eppendorf tube and pelleted. The pelleted cells were incubated with 300 μl of 50 mM Glycine pH=2.5 for 3 minutes and then pelleted discarding the supernatant. This process was repeated one more time. The pelleted cells were washed with 300 μl of cold 1% PBSA and then resuspended in 300 μl 0.3M NaOH. This was counted in the gamma counter as “internalized fraction”.
(§5) SHP-77 cells are human-derived, non-engineered SCLC cells.

SHP-77 cells [2] = assay: Cell binding (total uptake) of [177Lu]Lu-labeled peptide, gamma counter bound fraction; type: cell-based, human; conditions: [177Lu]Lu-test peptide, 1 h, 37° C., 1% PBSA
Protocol: as §1, §2, §3
as §3, with “Suspension” for “The study was conducted using SHP-77cells (Table 7) Adherent”, “CO2.” for “CO2. Adherent cells were detached (60-70% confluent) using 5 mL Versene at 37° C. for 3 min.”, “viability” for “viability using countess”
as §4
Total uptake: Cells were incubated with 300 μL (0.8 μCi) of the incubation buffer (containing radiolabeled peptide [^177Lu]Lu-test peptide) for 1 hour at 37 C (Table 8). Post incubation, the cells were pelleted and washed 2 times using cold PBS+1% BSA. The supernatant and washes were combined and counted together as “unbound fraction” in a gamma counter. The cells were then resuspended in 300 μL of 1% PBS+1% BSA and counted in the gamma counter as “bound fraction”.
as §5

human DLL3 = biological target: T1, human DLL3; assay: Affinity determination by Surface Plasmon Resonance (SPR), Biacore, 1:1 binding model; conditions: biotinylated human DLL3 on streptavidin chip, 25° C.; NB = nonbinding
In short: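 SPR with biotinylated human DLL3 captured on a streptavidin chip, with a reference surface subtracted. Samples were injected at several concentrations at 100 μL/min in phosphate buffer with 137 mM NaCl, 2.7 mM KCl, 0.05% P20 and 2% DMSO. Kinetic and affinity constants came from a 1:1 binding fit.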

[3] = biological target: DLL3 on SHP-77 cells (human) (UniProt Q9NYJ7); assay: 177Lu-labelled peptide on SHP-77 cells, 1 h 37 C, gamma count of bound fraction
Biotinylated human DLL3 = biological target: T2, Biotinylated human DLL3; assay: SPR, biotin-hDLL3 on SA chip; Cpd 56, a separate compound
[4] = biological target: Biotinylated human DLL3 (human) (UniProt Q9NYJ7); assay: SPR, biotin-hDLL3 on SA chip

Molecule | % Binding [3] | other results
CC(=O)N[C@@H](CC1CCNCC1)C(=O)N[C@@H](CO)C(=O)N[C@@H](CC(=O)O)C(=O)N[C@H]1CC=CC[C@@H](C(=O)N2CCC[C@@]2(C)C(=O)N[C@@H](Cc2ccccc2)C(=O)N[C@@H](CC(=O)O)C(N)=O)NC(=O)[C@H](CC(N)=O)NC(=O)[C@H](Cc2ccc3ccccc3c2)NC(=O)[C@H](Cc2ccc(CNC(=O)CN3CCN(CC(=O)O)CCN(CC(=O)O)CCN(CC(=O)O)CC3)cc2)NC(=O)[C@H](CC(C)(C)C)NC(=O)[C@H](Cc2cccc3ccccc23)NC1=O [compound 200, Ac-[3-(4-piperidinyl)-Ala]-S-D-AllyG(4)-(1Nal)-(t-Bu-Ala)-[PAF(DOTA)]-(2Nal)-N-AllyG(4)-(aMe-P)-F-D-CONH2] (Ac-[Ala(piperidin-4-yl)]SD[AllylGly][1Nal][tBuAla][Phe(4-CH2NH2)](DOTA)[2Nal]N[AllylGly][αMeP]FD-NH2; staple 4-10) | – | % Internalization (out of bound fraction) (SHP-77 cells [1]): 46%; % Binding (SHP-77 cells [2]): 6%; Kd (human DLL3): 0.18 nM
B1 | 9% | –
Ac-[dA]SDC[1Nal][tBuAla]A[2Nal]DC[αMeP]FD[dK](DOTA)-NH2 (disulfide 4-10; also: 177Lu chelated) [[177Lu]Lu-Cpd #166] | 7% | –
Ac-[dA][NMeS]D[AllylGly][1Nal][tBuAla][PAF(DOTA)][2Nal]N[AllylGly][αMeP]FD-NH2 (staple 4-10; reading uncertain; also: 177Lu chelated) [[177Lu]Lu-Cpd #195] | 7% | –
{DOTA}-[Ahx]SDC[1Nal][tBuAla][Ala(piperidin-4-yl)][2Nal]NC[αMeP]FD-NH2 (disulfide 4-10; also: 177Lu chelated) [[177Lu]Lu-Cpd #176] | 6% | –
Ac-[Ala(piperidin-4-yl)]SD[AllylGly][1Nal][tBuAla][PAF(DOTA)][2Nal]N[AllylGly][αMeP]FD-NH2 (staple 4-10; reading uncertain; also: 177Lu chelated) [[177Lu]Lu-Cpd #200] | 6% | –
Ac-[dA]S[αMeD]C[1Nal][tBuAla]Q[2Nal]NC[αMeP]FD[dK](DOTA)-NH2 (disulfide 4-10; also: 177Lu chelated) [[177Lu]Lu-Cpd #168] | 8% | –
B2 | 25% | –
{DOTA}-[dA]SDC[1Nal][tBuAla]Q[2Nal]NC[αMeP][Phe(2-Me)]D-NH2 (disulfide 4-10; also: 177Lu chelated) [[177Lu]Lu-Cpd #154] | 10% | –
B3 | 10% | –
B4 | – | Kd (Biotinylated human DLL3): 1.13 nM
B5 | – | Kd [4]: > 30 nM
